In data set [1] the target is T1, Lon4E (Caulobacter crescentus, UniProt P0CAW0 1-799, K301E;K303E;K305E;K306E).
T1 sequence: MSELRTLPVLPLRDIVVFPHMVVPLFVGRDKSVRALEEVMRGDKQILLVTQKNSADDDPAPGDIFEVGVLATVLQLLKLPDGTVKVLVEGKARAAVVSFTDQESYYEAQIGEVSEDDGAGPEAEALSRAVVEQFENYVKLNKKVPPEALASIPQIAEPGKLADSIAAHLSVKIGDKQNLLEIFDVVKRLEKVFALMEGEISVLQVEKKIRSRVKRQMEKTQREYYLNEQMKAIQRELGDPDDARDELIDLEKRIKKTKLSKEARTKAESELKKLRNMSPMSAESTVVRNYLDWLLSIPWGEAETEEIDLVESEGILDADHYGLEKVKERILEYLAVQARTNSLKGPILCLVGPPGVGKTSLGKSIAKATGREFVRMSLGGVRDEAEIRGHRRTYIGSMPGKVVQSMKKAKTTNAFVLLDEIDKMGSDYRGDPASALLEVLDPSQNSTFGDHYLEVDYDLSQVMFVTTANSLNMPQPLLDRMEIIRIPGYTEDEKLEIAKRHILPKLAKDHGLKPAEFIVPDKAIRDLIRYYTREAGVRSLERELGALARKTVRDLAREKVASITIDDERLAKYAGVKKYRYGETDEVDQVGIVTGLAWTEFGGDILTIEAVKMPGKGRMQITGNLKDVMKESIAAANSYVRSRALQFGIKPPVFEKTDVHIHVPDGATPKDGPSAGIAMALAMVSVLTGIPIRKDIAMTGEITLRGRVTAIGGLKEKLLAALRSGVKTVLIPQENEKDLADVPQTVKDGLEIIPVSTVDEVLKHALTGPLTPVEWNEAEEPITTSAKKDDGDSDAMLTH
Put plainly: fluorescence polarization; 0.1 uM Lon4E, 25 nM FAM-ssDNA; FP: 25 mM HEPES pH 7.5, 10 mM MgCl2, 100 mM KCl, 0.05% Tween-20, 30 C, 0.1 uM Lon (hexamer), 25 nM DNA; mass photometry in TK buffer, 200 nM Lon. Conditions: protein: recombinant; chain copies: 6; label: FAM (printed at 5' side). (In general: Fluorescence polarisation rises when a labelled molecule tumbles more slowly, as on binding a larger partner.)

Data set [2] has as its target T2, Lon4A (Caulobacter crescentus, UniProt P0CAW0 1-799, K301A;K303A;K305A;K306A).
T2 sequence: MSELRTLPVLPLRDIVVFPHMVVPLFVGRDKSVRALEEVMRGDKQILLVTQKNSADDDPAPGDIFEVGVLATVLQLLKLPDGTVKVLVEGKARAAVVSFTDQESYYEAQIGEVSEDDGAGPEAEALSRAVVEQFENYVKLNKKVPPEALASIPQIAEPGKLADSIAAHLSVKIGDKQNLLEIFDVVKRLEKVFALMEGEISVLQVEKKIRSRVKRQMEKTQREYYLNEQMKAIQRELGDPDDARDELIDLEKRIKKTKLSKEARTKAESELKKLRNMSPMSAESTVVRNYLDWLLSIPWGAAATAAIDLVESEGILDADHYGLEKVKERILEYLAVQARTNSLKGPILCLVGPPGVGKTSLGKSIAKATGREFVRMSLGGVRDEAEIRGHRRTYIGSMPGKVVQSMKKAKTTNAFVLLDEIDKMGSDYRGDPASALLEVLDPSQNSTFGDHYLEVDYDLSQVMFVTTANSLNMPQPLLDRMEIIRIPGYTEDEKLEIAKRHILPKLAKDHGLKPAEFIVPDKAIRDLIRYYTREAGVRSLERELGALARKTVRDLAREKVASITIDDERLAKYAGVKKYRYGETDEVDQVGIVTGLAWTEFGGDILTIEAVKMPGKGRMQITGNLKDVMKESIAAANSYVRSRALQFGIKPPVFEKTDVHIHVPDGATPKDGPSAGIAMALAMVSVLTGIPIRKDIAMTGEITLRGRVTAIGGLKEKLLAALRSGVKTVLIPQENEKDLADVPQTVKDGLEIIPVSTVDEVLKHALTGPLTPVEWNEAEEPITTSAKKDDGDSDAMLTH
Put plainly: fluorescence polarization; 0.1 uM Lon4A, 25 nM FAM-ssDNA; FP: 25 mM HEPES pH 7.5, 10 mM MgCl2, 100 mM KCl, 0.05% Tween-20, 30 C, 0.1 uM Lon (hexamer), 25 nM DNA; mass photometry in TK buffer, 200 nM Lon. The settings on record: protein: recombinant; chain copies: 6; label: FAM (printed at 5' side).

Data set [3] concerns the target T3, Lon (wild type) (Caulobacter crescentus, UniProt P0CAW0 1-799).
T3 sequence: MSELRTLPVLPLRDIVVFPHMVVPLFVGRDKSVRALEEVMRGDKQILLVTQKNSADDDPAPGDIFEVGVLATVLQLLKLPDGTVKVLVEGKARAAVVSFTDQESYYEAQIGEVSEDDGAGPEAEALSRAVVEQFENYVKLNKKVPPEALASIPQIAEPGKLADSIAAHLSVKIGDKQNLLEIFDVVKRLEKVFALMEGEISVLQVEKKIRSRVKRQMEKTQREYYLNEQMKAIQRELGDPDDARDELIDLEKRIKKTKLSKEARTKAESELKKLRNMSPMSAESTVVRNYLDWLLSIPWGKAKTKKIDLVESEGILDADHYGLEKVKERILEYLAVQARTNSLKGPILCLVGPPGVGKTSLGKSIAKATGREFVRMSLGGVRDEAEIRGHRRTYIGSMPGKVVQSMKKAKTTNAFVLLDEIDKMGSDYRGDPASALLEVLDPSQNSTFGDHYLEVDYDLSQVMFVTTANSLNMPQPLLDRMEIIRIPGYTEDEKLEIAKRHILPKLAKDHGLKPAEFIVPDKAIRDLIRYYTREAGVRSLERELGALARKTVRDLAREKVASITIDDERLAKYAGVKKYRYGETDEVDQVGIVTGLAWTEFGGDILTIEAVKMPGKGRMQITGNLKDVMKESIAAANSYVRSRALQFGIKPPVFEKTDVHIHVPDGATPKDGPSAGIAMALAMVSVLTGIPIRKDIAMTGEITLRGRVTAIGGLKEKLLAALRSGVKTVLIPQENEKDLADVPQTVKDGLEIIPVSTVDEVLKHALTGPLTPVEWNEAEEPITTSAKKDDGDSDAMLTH
In words: mass photometry; 200 nM Lon monomer; shift to HMW, median 592 kDa vs 515 kDa, consistent with one ssDNA per protomer; FP: 25 mM HEPES pH 7.5, 10 mM MgCl2, 100 mM KCl, 0.05% Tween-20, 30 C, 0.1 uM Lon (hexamer), 25 nM DNA; mass photometry in TK buffer, 200 nM Lon. Conditions: protein: recombinant; chain copies: 6.

B1: FAM-ssDNA (G1Box top strand) (ssDNA)
DNA: AACGGATGATCCACAGGAGAGTCTGGCGCAGGGCGAGAG
Regarding B1, the binding result in data set [1] and in data set [2] was “no binding” throughout.

B2: OPC698-Stim (ssDNA)
DNA: TCGATTCTCGAGTTAGTCGTCTTCTGGTGCCGGAAA
On to B2, for which the binding result in data set [3] was “binds”.
